Values belong to the molecule of their own block, whether it stands above or below them.
Columns and labels:
[1] = molecular target: rat PTH2R (rat, UniProt P70555 25-546); test: cell-based or functional assay
[2] = test system: F-11 cells; conditions: DRG-like F-11 cells; cited from earlier work
[3] = molecular target: T1, rat PTH2R (Rattus norvegicus, UniProt P70555); test: cAMP SPA assay for PTH2R activation, rat PTH2R; assay type: cell-based; conditions: HEK293 cells expressing rat PTH2R, FIG. 4A
T1 construct: V5-His (appears only in the vector name); expressed in transfected cells
Excerpt: (§1) HEK293 cells were transfected with rat and human PTH2R and cell lines that stably express the receptors were established and evaluated. One cell line was selected for each rat and human PTH2R and used for all the functional assays. Specifically, HEK293 cells were transfected with pCDNA3.1/V5-His-RatPTH2R plasmid DNA and pCDNA3.1-E/Uni-lacZ-HumanPTH2R plasmid DNA using FuGENE 6 transfection reagent (Roche Molecular Biochemicals). Three days after transfection, cells were put under selection with 800 μg/ml geneticin (G418, Gibco BRL). After three weeks of selection, single colonies were cloned using cloning cylinders. Cloned colonies were scaled up to T25 flasks. More than 10 cell lines for each plasmid were tested for function in the cAMP SPA assay.
(§2) HEK293PTH2R cells were seeded in a 96-well poly-D-lysine coated plate at 100,000 cells per well and cultured overnight. After washing with 200 μl of PBS and treating with 100 μl of 300 nM IBMX in assay medium (MEM without phenol red and FBS) at 37° C. for 10 min. The assay medium was then aspirated and the cells were washed with PBS. The cellular of cAMP was measured using cAMP SPA Direct Screening (Amersham/Pharmacia RPA559). Each concentration of ligand was repeated as triplicate.

[4] = molecular target: T2, human PTH2R (Homo sapiens, UniProt P49190); test: cAMP SPA assay for PTH2R activation, human PTH2R; assay type: cell-based; conditions: HEK293 cells expressing human PTH2R, FIG. 4B
T2 construct: expressed in transfected cells
Excerpt: as §1, §2

[5] = molecular target: T1, rat PTH2R; test: Measurement of [Ca2+]i using the FLIPR, rat PTH2R; assay type: cell-based
Excerpt: as §1
(§3) HEK293 cells were seeded into […] clear-base 96 well plates (BD Biocoat) coated with poly-D-lysine at a density of 100,000 cells per well in MEM, and cultured overnight.
(§4) Curve-fitting and parameter estimation were carried out using Graph Pad Prism, 3.00 (GraphPad Software Inc., California, U.S.A.).

[6] = molecular target: T2, human PTH2R; test: Measurement of [Ca2+]i using the FLIPR, human PTH2R; assay type: cell-based; conditions: human PTH2R expressing HEK293 cells
Excerpt: as §1, §3, §4

[7] = molecular target: human PTH2R (human, UniProt P49190 25-550); test: cell-based or functional assay
Chain of human PTH2R (human, UniProt P49190 25-550) (P49190 25-550): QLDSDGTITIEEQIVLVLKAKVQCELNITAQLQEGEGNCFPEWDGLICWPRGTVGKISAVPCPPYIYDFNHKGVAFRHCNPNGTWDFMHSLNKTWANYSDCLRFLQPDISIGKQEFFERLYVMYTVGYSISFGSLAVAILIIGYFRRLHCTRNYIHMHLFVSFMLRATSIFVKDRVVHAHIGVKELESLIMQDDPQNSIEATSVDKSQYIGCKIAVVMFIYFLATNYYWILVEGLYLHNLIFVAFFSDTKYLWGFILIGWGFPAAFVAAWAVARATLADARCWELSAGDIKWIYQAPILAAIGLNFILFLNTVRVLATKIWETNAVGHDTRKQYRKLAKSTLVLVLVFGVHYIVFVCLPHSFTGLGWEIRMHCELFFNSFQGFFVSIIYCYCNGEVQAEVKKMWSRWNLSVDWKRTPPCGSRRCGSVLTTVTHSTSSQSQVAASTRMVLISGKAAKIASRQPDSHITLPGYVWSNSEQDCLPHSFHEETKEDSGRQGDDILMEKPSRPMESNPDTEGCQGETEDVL

Chain of rat PTH2R (rat, UniProt P70555 25-546) (P70555 25-546): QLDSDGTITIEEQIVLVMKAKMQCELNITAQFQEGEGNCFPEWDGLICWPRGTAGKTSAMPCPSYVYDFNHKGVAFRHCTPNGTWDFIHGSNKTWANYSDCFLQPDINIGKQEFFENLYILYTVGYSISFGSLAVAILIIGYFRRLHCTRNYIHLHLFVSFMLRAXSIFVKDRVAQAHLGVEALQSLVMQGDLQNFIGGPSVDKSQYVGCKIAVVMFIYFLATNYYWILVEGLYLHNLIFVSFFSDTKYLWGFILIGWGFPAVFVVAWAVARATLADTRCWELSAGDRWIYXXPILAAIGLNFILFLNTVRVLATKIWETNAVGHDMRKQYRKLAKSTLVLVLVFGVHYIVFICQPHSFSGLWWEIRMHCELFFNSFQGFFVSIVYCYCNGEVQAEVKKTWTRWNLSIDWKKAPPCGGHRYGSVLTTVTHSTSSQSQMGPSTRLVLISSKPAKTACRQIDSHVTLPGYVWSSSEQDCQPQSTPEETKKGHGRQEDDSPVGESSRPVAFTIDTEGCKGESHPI
T1 sequence (P70555 25-546): as above
T2 sequence (P49190 25-550): as the sequence (P49190 25-550) above

Molecule: human PTH (1-34) (from UniProt P01270 32-65) (peptide)
logEC50, cAMP increase (cAMP SPA assay) in HEK293 cells stably expressing rat PTH2R [1]: -9.3
maximal level of cAMP (pmol/100,000 cells) [1]: < 29

Molecule: bovine tuberoinfundibular peptide of 39 residues [bTIP39]
effect on cAMP [2]: increases cAMP

Molecule: human PTH(1-34)
relative potency, cAMP [3]: slightly less potent
relative potency, cAMP [4]: slightly less potent than the other peptides
agonist character, [Ca2+]i response ([5]; rat PTH2R expressing HEK293 cells): little response if any
agonist character, [Ca2+]i response [6]: little response

Second part, the molecule after the results:

maximal level of cAMP (pmol/100,000 cells) [1]: < 29
maximum [Ca2+]i response compared to that of human TIP39 [1]: 30%
Molecule: rat PTH(1-34) (from UniProt P04089 32-65) (peptide)

maximum response compared to that of human TIP39 ([5]; rat PTH2R expressing cells, [Ca2+]i FLIPR): ~30%
maximum response compared to that elicited by human TIP39 ([6]; [Ca2+]i FLIPR): 42±2%
Molecule: rat PTH(1-34)

logEC50, [Ca2+]i increase (FLIPR) [1]: -7.3
logEC50, cAMP increase (cAMP SPA assay) in HEK293 cells stably expressing rat PTH2R [1]: -9.9
logEC50, [Ca2+]i increase (FLIPR) [7]: -7.8
logEC50, cAMP increase (cAMP SPA assay) in HEK293 cells stably expressing human PTH2R [7]: -9.7
Molecule: SLALADDAAFRERARLLAALERRRWLDSYMQKLLLLDAP [mouse tuberoinfundibular peptide of 39 residues]
